Molecular target: human IL-23R (human) (UniProt Q5VWK5)
Assay: BIAcore, antibody immobilized on CM5 chip

Chain of human IL-23R (human) (Q5VWK5 24-353 L310P limits assumed): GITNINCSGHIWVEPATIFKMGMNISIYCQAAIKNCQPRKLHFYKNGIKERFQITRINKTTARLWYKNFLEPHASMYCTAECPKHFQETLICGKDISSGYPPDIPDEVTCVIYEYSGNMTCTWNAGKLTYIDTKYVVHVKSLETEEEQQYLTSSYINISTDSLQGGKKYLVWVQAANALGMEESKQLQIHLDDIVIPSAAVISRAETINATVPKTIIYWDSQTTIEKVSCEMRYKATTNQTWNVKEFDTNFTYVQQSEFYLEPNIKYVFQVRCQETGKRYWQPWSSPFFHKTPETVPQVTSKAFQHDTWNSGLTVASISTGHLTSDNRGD

Row | Kd [nM] | fold reduction of binding affinity against mouse 20D7 [fold] | fold improvement of binding affinity against the simple humanization (hu20D7-a) [fold] | Binder
1 | 4.3 | 50 |  | humanized 20D7 antibody with hu20D7-a heavy chain variable domain (antibody, part only; not given: unnamed light chain, V domains shown, part only) VH: QVQLVQSGAEVKKPGASVKVSCKASGYTFTNYAMNWVRQAPGQGLEWMGWINTYTGEPTYNEKFKGRVTMTTDTSTSTAYMELRSLRSDDTAVYYCARGGGYDEDYFDYWGQGTLVTVSS
2 | 0.36 |  |  | humanized 20D7 antibody with hu20D7-b heavy chain variable domain (T72L) (antibody, part only; not given: unnamed light chain, V domains shown, part only) VH: QVQLVQSGAEVKKPGASVKVSCKASGYTFTNYAMNWVRQAPGQGLEWMGWINTYTGEPTYSDDFKGRVTMTLDTSTSTAYMELRSLRSDDTAVYYCARGGGYDEDYFDYWGQGTLVTVSS
3 | 0.23 |  | 20 | humanized 20D7 antibody with hu20D7-c heavy chain variable domain (T72L, M70F) (antibody, part only; not given: unnamed light chain, V domains shown, part only) VH: QVQLVQSGAEVKKPGASVKVSCKASGYTFTNYAMNWVRQAPGQGLEWMGWINTYTGEPTYSDDFKGRVTFTLDTSTSTAYMELRSLRSDDTAVYYCARGGGYDEDYFDYWGQGTLVTVSS

Source: US20130064817A1
